Test [1] deals with T1, LILRB4 on the surface of human monocytic leukemia cells (THP-1) (human, UniProt Q8NHJ6 22-448). Put plainly: cell-based or functional assay.
The next test deals with LILRA5 (UniProt A6NI73 42-268, limits assumed). Briefly: ELISA, coated LILR protein 100 ng/well.
The next test has as its target LILRA6 (UniProt Q6PI73 24-447, limits assumed). Put plainly: ELISA, coated LILR protein 100 ng/well.
The next test deals with LILRB1 (UniProt Q8NHL6 24-461, limits assumed). Put plainly: ELISA, coated LILR protein 100 ng/well.
Sequence of LILRB1 (Q8NHL6 24-461 limits assumed): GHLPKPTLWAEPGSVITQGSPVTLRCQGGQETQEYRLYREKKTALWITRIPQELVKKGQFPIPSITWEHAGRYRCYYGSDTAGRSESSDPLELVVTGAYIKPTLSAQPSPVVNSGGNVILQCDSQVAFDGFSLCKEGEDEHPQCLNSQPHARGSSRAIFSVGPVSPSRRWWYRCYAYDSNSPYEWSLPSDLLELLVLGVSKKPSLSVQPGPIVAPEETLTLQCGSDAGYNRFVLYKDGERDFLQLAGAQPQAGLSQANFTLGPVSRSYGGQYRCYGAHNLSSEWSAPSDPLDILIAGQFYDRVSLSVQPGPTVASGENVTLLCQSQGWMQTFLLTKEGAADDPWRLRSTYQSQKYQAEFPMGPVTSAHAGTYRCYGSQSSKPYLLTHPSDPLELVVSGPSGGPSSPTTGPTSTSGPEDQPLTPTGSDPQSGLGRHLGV
A further test deals with LILRB2 (UniProt Q8N423 22-460, limits assumed). Put plainly: ELISA, coated LILR protein 100 ng/well.
Sequence of LILRB2 (Q8N423 22-460 limits assumed): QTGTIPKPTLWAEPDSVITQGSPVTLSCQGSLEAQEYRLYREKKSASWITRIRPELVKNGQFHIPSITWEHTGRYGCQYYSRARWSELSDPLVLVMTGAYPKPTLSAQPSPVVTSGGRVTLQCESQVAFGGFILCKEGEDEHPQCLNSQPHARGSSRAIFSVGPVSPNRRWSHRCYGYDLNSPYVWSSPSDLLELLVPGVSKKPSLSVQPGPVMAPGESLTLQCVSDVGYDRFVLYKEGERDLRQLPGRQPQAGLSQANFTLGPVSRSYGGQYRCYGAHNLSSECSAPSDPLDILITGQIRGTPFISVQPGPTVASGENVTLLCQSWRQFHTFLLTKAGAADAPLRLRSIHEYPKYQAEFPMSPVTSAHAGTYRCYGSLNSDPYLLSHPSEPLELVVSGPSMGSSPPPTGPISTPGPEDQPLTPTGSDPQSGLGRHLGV
The next test concerns the target LILRB3 (UniProt O75022 24-443, limits assumed). Briefly: ELISA, coated LILR protein 100 ng/well.
The next test has as its target LILRB5 (UniProt O75023 24-458, limits assumed). Briefly: ELISA, coated LILR protein 100 ng/well.
The next test has as its target LILRA1 (UniProt O75019 17-461, limits assumed). Put plainly: ELISA, coated LILR protein 100 ng/well.
The target of the next test is LILRA2 (UniProt Q8N149 24-449, limits assumed). Briefly: ELISA, coated LILR protein 100 ng/well.
Sequence of LILRA2 (Q8N149 24-449 limits assumed): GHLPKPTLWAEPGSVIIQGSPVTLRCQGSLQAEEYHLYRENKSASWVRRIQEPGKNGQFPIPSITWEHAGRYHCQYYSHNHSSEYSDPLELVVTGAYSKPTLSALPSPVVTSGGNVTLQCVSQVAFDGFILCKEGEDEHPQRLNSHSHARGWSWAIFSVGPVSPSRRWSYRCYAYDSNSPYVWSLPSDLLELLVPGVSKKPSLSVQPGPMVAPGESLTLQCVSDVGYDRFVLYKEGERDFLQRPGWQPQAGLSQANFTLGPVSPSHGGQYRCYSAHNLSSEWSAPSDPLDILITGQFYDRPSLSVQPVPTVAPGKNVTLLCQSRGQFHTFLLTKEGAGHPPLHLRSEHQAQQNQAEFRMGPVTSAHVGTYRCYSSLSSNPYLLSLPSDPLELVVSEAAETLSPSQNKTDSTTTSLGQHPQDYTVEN
Another test addresses LILRA3 (UniProt Q8N6C8 24-439). Put plainly: ELISA, coated LILR protein 100 ng/well.
For another test, the target named is LILRA4 (UniProt P59901 24-446, limits assumed). Briefly: ELISA, coated LILR protein 100 ng/well.
Sequence of LILRA4 (P59901 24-446 limits assumed): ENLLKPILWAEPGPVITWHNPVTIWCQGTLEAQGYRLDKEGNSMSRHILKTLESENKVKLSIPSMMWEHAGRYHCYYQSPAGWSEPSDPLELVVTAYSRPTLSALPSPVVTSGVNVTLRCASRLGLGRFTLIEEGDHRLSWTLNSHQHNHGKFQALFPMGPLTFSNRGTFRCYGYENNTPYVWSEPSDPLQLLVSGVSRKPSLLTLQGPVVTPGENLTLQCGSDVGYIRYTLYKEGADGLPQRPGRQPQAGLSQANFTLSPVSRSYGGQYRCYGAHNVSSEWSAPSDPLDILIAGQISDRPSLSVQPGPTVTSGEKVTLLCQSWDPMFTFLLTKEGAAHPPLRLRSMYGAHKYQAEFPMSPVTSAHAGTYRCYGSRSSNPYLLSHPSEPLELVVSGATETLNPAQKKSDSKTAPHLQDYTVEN
In test [2] the target is T1, LILRB4 on the surface of human …. Put plainly: flow cytometry on THP-1 cells, FITC goat anti-mouse IgG detection.
Test [3] has as its target T2, human LILRB4 extracellular domain (LILRB4抗原, LILRB4蛋白胞外段) (human, UniProt Q8NHJ6 22-259).
T2 construct: extracellular domain; also called 人LILRB4
Briefly: ELISA, coated LILRB4 100 ng/well, goat anti-mouse IgG-HRP detection.

Test [4] has as its target T1, LILRB4 on the surface of human …. Briefly: flow cytometry competition on THP-1 cells; competitor FITC-labelled ApoE at 0.4 μg/mL.

Sequence of LILRB5 (O75023 24-458 limits assumed): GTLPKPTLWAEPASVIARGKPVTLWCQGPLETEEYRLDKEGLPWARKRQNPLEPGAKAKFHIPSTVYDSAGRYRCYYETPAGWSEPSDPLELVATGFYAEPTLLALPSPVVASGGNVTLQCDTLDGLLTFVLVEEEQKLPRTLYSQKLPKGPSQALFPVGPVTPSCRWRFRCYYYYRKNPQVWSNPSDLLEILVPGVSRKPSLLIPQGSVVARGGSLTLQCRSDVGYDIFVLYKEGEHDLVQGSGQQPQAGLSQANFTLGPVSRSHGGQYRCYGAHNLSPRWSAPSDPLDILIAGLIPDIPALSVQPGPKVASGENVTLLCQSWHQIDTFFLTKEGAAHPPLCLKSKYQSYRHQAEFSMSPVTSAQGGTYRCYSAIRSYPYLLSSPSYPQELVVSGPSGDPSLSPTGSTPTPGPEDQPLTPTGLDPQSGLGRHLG
Sequence of LILRA5 (A6NI73 42-268 limits assumed): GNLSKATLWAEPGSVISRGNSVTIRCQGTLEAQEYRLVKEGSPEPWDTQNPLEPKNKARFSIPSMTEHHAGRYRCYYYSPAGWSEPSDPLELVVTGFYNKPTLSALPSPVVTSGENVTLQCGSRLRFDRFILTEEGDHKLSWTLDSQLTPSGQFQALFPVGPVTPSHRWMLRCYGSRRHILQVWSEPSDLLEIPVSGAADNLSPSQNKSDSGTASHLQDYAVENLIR
Sequence of LILRB3 (O75022 24-443 limits assumed): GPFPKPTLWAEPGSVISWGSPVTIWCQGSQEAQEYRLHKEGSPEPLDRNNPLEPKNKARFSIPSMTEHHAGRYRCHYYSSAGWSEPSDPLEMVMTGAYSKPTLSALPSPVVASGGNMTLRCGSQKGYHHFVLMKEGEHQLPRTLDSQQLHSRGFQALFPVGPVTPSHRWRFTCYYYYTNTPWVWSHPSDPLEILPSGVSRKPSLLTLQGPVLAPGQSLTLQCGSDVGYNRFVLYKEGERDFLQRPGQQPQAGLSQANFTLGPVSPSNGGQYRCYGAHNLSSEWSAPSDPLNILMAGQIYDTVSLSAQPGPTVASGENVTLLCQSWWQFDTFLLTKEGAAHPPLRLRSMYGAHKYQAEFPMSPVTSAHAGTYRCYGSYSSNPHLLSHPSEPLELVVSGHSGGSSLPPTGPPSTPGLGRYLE
Sequence of LILRA1 (O75019 17-461 limits assumed): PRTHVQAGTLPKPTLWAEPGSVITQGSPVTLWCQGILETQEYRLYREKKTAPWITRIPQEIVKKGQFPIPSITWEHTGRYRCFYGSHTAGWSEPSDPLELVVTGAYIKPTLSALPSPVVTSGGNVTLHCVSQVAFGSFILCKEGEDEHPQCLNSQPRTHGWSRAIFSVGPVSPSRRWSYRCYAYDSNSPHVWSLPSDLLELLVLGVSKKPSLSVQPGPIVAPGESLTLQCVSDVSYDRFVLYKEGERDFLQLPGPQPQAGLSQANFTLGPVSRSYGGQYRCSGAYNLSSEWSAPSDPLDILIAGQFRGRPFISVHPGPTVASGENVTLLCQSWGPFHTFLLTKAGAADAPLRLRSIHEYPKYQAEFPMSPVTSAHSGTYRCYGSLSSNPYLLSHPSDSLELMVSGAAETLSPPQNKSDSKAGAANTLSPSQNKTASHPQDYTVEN
Sequence of LILRA3 (Q8N6C8 24-439 limits assumed): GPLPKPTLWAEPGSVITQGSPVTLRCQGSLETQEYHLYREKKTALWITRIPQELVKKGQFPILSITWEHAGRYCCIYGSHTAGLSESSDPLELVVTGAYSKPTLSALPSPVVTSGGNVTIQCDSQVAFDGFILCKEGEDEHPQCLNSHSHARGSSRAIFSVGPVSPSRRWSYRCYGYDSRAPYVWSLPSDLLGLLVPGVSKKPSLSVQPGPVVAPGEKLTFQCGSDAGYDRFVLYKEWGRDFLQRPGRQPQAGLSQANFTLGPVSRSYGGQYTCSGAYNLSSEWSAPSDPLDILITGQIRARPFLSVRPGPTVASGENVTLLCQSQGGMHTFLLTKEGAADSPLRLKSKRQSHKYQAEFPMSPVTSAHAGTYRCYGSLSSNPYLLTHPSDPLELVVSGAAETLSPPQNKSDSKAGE
Sequence of LILRA6 (Q6PI73 24-447 limits assumed): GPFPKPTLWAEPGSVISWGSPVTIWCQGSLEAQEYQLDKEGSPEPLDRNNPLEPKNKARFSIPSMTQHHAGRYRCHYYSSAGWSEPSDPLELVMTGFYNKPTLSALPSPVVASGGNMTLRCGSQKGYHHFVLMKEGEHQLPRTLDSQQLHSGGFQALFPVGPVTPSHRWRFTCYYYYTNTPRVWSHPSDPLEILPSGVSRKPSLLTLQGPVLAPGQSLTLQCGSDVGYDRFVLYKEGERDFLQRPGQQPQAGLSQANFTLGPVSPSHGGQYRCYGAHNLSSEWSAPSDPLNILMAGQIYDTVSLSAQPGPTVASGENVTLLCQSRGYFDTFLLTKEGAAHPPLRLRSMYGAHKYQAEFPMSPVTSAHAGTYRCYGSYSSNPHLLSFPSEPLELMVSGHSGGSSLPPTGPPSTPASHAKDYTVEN

B1: ME-Ⅰ anti-LILRB4 monoclonal antibody (mouse IgG1 / Cκ) (antibody, V domains shown)
VH: EVQLEQSGAEVVKPGASVKLSCKASGYTFISYWMHWVKQRPGQGLEWIGEINPTNGRTNYNEKFKSKATLTVDKSSGTAYMQLSSLTSEDSAVYYCARWGQLGLREGYYAVDYWGQGTSVTVSS
VL: DIVLTQSPSSLSASLGDRVTISCRASQDISNYLNWYQQNPNGTVKLLIYYTSRLHSGVPSRFSGSGSGTDYSLTISNLEQEDIATYFCQQGDTLPPTFGGGTKLEIKA
notes: also called 单克隆抗体ME-Ⅰ; ME-Ⅰ抗LILRB4单克隆抗体
Consider B1, for which the “IC50 of inhibition of ARG1 secretion by THP-1 cells in the presence of ApoE (arginase activity kit)” value in test [1] amounted to 330 µg/mL. Besides, the binding result with LILRA5, with LILRA6, in the test with LILRB1, with LILRB2, in the test with LILRB3 and with LILRB5 was “no binding (tested: 50μg/mL)” each time. Besides, the binding result in the test with LILRA1, with LILRA2, in the test with LILRA3 and with LILRA4 was “no binding (tested: 50μg/mL)” in each case. Also, the EC50 was determined as 5.48 µg/mL in test [2] and 0.375 µg/mL in test [3]. The IC50 in test [4] worked out at 9.69 µg/mL.

For the origin of these results see patent CN115947850A (BEIJING DONGFANG BIOTECH CO LTD, dated 2023).
